{
  "source": "patent US20180244758A1",
  "about": "(MAPP BIOPHARMACEUTICAL, published 2018)",
  "binders": {"B1": {"name": "mAb PE-87 (antibody, V domains shown)", "VH": "QVQLVQSGVTLVQPGGSLRVSCAASGFTFSSYAMSWVRQAPGKGLEWVSAISGLGGSTYYADSVKGRFTISRDNSKNTLYLQMNSLRAEDTAVYYCAKDHRVWAAGYHFDYWGQGALVTVSS", "VL": "DIVLTQSPSTLSASVGDRVTITCRASQSISSWLAWYQQKPGEAPKLLISDASSLESGVPSRFSGSGSGTEFTLTISSLQPDDFATYYCQQYYSSPTFGGGTKVEIK"}, "B2": {"name": "mAb PE-24 (antibody, V domains shown)", "VH": "EVQLVESGGGLVQPGGSLRLSCAASGFTFSSYAMSWVRQAPGKGLEWVSEISGLGGSTYYADSAKGRFTISRDNSKSTLYLQMNSLRAEDTAVYYCAKDHRVWAPGYYFDHWGQGTLVTVSS", "VL": "B1 VL with E42K, S49Y, Y87F, Y92N, S93R"}, "B3": {"name": "mAb PE-05 (antibody, V domains shown)", "VH": "QVQLQESGGGLVKPGRSLRLSCTASGFTFGDYAMSWFRQAPGKGLEWVGFLRSKAYGGTAEYAASVKGRFTMSRDDSKSIAYLQMNSLKTEDTAVYFCTRDGFRGSSWGYSYYGMDVWGQGTTVTVSS", "VL": "not shown"}, "B4": {"name": "mAb PE-16 (antibody, V domains shown)", "VH": "QVQLVQSGAEVTKPGASVKVSCKASGYTFTTYYMHWVRQAPGQGLEWVGIINPSGGITRYAQKFQGRVTLTRDTSTTTVYMELSSLRSEDTAVYYCARDRYPVLFATDYGMDVWGQGTTVTVSS", "VL": "DIVMTQSPATLSLSPGERATLSCRASQSVSGYLAWYQQKPGQAPRLLIYDASNRATGIPARFSGSGSGTDFTLTISSLEPEDFAVYYCQQRSIWPPGVTFGGGTKVEIK"}, "B5": {"name": "mAb PE-47 (antibody, V domains shown)", "VH": "EVQLVESGGGLVKPGGSLRLSCAASGFTFSNAWMSWVRQAPGEGLEWVGRIKSKTDGGTIDYAAPVKGRFTISRDDSKNTVYLQMTSLKTEDTAVYYCTTYTEDMQYFDWLLRGGETFDYWGQGTLVTVSS", "VL": "DIQMTQSPSSLSASVGDRVTITCRASQYISTYLNWYQQKPGKAPKLLIYAAYNLQSGVPSRFSGSGSGTDFTLTISSLQPEDFATYYCQQSYSTPGRYTFGQGTKVEIK"}},
  "note": "Residue numbers refer to the chain shown, from its start.",
  "data": [
    {"target": "T1, SUDV GP on rVSV particles (Sudan virus (SUDV), UniProt Q66814 33-676)", "T1 sequence": "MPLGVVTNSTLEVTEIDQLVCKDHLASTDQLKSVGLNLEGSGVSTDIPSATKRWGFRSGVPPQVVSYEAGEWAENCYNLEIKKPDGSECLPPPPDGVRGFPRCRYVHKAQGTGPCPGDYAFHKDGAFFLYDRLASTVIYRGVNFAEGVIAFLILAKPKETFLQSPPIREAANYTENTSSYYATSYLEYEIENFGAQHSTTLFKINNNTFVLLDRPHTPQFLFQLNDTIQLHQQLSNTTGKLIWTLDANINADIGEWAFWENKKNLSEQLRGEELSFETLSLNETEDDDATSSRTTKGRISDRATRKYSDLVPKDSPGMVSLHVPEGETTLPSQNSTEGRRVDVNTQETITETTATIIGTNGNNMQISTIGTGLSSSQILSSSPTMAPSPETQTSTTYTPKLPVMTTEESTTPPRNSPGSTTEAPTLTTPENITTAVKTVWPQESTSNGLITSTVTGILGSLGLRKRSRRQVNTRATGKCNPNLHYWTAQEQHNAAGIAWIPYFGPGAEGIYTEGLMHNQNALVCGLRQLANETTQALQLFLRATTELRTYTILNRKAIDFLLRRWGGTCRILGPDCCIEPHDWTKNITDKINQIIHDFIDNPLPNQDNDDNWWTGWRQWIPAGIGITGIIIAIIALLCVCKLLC", "assay": "cell-based or functional assay", "units": {"rVSV-GP neutralization IC50": "nM"}, "values": [
      {"binder": "B1", "rVSV-GP neutralization IC50": 0.3},
      {"binder": "B2", "rVSV-GP neutralization IC50": 0.5},
      {"binder": "B3", "rVSV-GP neutralization IC50": 34}
    ]},
    {"target": "T2, EBOV GP on rVSV particles (Ebola virus (EBOV), UniProt Q05320 33-676)", "T2 sequence": "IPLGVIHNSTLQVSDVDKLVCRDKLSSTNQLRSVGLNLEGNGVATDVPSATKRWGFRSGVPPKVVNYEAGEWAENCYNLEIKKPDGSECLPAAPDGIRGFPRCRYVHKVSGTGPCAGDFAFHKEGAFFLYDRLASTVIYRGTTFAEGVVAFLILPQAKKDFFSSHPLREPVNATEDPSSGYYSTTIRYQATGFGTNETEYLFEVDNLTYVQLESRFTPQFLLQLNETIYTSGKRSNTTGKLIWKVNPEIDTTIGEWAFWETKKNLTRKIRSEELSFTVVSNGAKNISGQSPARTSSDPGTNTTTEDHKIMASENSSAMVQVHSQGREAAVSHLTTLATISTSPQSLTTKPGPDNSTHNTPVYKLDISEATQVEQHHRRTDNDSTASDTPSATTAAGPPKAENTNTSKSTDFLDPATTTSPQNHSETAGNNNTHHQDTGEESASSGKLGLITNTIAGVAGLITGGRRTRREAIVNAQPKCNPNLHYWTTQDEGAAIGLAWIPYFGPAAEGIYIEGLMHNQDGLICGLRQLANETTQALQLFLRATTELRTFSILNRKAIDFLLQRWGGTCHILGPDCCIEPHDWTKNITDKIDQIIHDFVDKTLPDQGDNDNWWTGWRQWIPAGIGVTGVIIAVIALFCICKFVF", "assay": "cell-based or functional assay", "units": {"rVSV-GP neutralization IC50": "nM"}, "values": [
      {"binder": "B4", "rVSV-GP neutralization IC50": 0.2},
      {"binder": "B1", "rVSV-GP neutralization IC50": 0.5},
      {"binder": "B2", "rVSV-GP neutralization IC50": 2},
      {"binder": "B3", "rVSV-GP neutralization IC50": 9}
    ]},
    {"target": "T3, TAFV GP on VSV pseudotype particles (Tai Forest virus (TAFV), UniProt Q66810 33-676)", "T3 sequence": "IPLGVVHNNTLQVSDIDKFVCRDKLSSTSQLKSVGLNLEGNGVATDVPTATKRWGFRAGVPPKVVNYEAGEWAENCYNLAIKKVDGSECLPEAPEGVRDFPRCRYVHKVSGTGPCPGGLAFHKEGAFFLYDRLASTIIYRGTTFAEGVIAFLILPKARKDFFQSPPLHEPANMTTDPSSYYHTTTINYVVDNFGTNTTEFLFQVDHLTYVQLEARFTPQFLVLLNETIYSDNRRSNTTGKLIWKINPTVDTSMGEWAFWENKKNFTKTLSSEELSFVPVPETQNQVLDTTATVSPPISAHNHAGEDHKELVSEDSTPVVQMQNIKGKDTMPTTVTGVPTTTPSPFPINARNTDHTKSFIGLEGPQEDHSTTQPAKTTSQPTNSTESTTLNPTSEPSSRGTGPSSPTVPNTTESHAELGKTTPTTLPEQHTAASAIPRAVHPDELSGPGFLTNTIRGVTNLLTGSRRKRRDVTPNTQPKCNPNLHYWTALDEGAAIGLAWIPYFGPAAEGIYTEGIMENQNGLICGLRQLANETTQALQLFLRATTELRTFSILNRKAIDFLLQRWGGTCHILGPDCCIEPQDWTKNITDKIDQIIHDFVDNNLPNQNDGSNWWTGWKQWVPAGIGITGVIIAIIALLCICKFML", "assay": "cell-based or functional assay", "units": {"rVSV-GP neutralization IC50": "nM"}, "values": [
      {"binder": "B4", "rVSV-GP neutralization IC50": 4.8},
      {"binder": "B1", "rVSV-GP neutralization IC50": 1},
      {"binder": "B2", "rVSV-GP neutralization IC50": 1.5},
      {"binder": "B3", "rVSV-GP neutralization IC50": 0.8}
    ]},
    {"target": "T4, sGP (UniProt P60170 33-324)", "T4 sequence": "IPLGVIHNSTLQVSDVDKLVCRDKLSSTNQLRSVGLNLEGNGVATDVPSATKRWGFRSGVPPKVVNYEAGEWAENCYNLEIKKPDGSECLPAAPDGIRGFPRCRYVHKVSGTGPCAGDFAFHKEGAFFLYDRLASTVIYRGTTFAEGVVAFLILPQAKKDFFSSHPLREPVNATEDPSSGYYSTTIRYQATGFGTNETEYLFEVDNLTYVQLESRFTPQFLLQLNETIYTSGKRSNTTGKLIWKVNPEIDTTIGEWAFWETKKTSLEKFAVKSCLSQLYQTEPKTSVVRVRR", "assay": "ELISA, GP antigen coated", "values": [
      {"binder": "B4", "binding result": "no binding (tested: 0.2 µg/ml)"},
      {"binder": "B1", "binding result": "no binding (tested: 0.2 µg/ml)"},
      {"binder": "B2", "binding result": "no binding (tested: 0.2 µg/ml)"},
      {"binder": "B5", "binding result": "no binding (tested: 0.2 µg/ml)"}
    ]},
    {"target": "T5, MARV GP (Marburg virus (MARV), UniProt P35253 19-637)", "T5 sequence": "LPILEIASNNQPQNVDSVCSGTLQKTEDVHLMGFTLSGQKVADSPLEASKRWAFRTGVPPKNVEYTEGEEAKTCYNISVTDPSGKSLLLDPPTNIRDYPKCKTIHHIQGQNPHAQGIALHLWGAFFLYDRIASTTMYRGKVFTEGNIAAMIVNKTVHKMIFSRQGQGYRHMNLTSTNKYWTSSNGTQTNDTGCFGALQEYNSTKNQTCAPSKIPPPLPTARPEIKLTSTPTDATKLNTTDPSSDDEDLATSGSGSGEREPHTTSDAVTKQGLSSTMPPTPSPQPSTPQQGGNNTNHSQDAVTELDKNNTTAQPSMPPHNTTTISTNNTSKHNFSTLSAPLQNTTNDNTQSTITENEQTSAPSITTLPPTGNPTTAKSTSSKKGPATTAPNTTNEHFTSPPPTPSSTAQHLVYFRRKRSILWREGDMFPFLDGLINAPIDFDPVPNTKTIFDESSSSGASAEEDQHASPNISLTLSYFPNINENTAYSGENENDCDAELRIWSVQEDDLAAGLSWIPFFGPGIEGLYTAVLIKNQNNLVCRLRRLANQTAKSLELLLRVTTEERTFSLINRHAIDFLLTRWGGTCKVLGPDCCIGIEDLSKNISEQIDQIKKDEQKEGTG", "assay": "ELISA, GP antigen coated", "values": [
      {"binder": "B4", "binding result": "no binding (tested: 0.2 µg/ml)"},
      {"binder": "B1", "binding result": "no binding (tested: 0.2 µg/ml)"},
      {"binder": "B2", "binding result": "no binding (tested: 0.2 µg/ml)"},
      {"binder": "B5", "binding result": "no binding (tested: 0.2 µg/ml)"},
      {"binder": "B3", "binding result": "no binding (tested: 0.2 µg/ml)"}
    ]}
  ]
}
